From US20260234610, “NOVEL CAS12A PROTEIN, VARIANT OF NOVEL CAS12A PROTEIN, AND USE THEREOF FOR EUKARYOTIC GENOME EDITING” (NSAGE CORP., published 2026) come the findings set out here.

Holding throughout (assay): cell_activity; PAM TTTV/TTTN; RNP in HEK293T
What all share (conditions): tags: NLS, His6

The target of one data set is T1, ID233 Cas12a.
T1 chain: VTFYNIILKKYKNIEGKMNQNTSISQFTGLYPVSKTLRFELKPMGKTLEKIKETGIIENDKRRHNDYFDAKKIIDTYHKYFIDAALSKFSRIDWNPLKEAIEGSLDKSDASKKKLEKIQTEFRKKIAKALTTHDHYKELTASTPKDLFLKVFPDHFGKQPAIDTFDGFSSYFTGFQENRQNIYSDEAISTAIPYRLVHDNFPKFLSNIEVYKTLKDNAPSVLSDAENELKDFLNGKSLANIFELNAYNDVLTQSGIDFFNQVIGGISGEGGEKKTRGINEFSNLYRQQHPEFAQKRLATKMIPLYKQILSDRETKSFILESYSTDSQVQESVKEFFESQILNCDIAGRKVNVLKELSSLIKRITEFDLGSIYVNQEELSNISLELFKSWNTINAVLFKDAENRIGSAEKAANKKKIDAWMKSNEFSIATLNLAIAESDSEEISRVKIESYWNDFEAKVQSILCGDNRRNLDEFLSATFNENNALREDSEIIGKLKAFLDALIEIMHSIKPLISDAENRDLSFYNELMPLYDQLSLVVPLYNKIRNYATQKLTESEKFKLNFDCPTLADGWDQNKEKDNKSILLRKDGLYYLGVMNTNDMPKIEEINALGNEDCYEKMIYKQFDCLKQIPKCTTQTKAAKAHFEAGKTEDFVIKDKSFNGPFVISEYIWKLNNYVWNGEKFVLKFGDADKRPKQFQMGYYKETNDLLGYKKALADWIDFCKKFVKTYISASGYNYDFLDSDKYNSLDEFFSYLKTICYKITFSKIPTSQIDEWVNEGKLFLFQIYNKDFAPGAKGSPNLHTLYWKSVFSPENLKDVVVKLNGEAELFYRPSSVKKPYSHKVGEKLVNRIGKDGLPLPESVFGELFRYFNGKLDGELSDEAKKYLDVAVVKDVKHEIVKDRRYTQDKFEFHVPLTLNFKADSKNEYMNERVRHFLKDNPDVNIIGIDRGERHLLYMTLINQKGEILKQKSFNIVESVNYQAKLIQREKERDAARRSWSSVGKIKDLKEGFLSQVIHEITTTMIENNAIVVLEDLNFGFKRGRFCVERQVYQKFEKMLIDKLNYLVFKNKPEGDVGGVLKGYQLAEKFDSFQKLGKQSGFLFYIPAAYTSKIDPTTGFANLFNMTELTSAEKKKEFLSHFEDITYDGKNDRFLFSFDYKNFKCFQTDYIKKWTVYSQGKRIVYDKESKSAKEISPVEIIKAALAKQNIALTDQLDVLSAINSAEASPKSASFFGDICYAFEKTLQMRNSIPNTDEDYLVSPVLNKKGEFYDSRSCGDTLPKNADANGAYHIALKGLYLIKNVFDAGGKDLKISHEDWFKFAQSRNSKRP
The method, then: (§1) To confirm the in vivo gene editing activity of the CRISPR enzymes according to Experimental Example 4.1, the following experiments were performed: [0474] 1) CRISPR/Cas12a complexes were assembled according to Experimental Example 1.5 using CRISPR enzymes prepared according to Experimental Example 4.1 and guide RNAs. [0475] 2) The CRISPR/Cas12a complexes assembled in 1) were transfected into HEK293T cells according to Experimental Example 1.8, and gene editing activity was measured.

The next data set deals with T2, ID236 Cas12a.
T2 chain: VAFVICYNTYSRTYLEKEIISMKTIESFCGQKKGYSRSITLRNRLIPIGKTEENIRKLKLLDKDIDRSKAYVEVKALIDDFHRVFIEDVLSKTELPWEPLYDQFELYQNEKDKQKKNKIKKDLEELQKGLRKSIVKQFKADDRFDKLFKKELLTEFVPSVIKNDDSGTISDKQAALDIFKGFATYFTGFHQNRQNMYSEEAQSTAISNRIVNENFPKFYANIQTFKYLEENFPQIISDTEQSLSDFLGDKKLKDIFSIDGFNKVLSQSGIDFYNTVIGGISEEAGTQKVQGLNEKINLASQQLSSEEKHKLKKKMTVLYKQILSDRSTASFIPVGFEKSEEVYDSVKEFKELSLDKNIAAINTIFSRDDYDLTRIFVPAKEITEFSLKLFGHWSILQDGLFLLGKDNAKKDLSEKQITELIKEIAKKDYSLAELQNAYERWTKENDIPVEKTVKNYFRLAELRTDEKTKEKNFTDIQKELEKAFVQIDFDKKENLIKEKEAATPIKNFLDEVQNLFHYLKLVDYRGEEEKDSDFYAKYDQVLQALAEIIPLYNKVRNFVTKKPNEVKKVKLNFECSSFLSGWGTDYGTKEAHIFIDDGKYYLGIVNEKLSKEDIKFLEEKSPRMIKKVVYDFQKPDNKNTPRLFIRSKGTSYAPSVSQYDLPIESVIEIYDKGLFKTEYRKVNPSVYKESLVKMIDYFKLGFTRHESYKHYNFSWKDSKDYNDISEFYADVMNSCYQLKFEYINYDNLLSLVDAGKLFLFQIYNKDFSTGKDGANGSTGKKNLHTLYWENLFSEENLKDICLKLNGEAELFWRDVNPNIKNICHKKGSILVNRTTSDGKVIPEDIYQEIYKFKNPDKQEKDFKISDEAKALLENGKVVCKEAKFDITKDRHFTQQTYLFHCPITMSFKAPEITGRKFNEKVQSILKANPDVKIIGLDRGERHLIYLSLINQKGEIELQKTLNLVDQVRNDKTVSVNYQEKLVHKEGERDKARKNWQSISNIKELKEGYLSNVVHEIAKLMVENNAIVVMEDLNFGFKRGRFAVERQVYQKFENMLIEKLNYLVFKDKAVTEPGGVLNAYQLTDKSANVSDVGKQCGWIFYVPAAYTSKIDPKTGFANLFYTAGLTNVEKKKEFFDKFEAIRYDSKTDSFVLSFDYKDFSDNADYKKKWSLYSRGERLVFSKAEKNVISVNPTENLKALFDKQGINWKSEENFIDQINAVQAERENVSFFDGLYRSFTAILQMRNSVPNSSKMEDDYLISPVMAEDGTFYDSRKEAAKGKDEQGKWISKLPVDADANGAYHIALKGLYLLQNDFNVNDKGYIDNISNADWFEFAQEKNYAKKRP
The method, then: as §1

For another data set, the target named is ID218 Cas12a. The protocol:
as §1

B1: 233 crRNA MTAP ; MTAP target (ssRNA ; dsDNA)
RNA: AAAAUUUCUACUCUUGUAGAUGCCCCAAUAAUCCCCACAUGUCA
DNA 1: GCCCCAATAATCCCCACATGTCA
DNA 2: TGACATGTGGGGATTATTGGGGC
With B1, the activity in the data set with ID233 Cas12a is 14.8 % indel.

B2: 236 crRNA MTAP ; MTAP target (ssRNA ; dsDNA)
RNA: UAAAUUUCUACUGUUGUAGAUGCCCCAAUAAUCCCCACAUGUCA
DNA 1: GCCCCAATAATCCCCACATGTCA
DNA 2: TGACATGTGGGGATTATTGGGGC
B2 showed an activity with ID236 Cas12a of 17 % indel.

B3: 218 crRNA DYRK1A ; DYRK1A target (ssRNA ; dsDNA)
RNA: UAAUUUCUACUAAGUGUAGAUGAAGCACAUCAAGGACAUUCUAA
DNA 1: GAAGCACATCAAGGACATTCTAA
DNA 2: TTAGAATGTCCTTGATGTGCTTC
B3 registered an activity with ID218 Cas12a of 71 % indel.

B4: 218 crRNA MTAP ; MTAP target (ssRNA ; dsDNA)
RNA: UAAUUUCUACUAAGUGUAGAUGCCCCAAUAAUCCCCACAUGUCA
DNA 1: GCCCCAATAATCCCCACATGTCA
DNA 2: TGACATGTGGGGATTATTGGGGC
As for B4, the activity in the data set with ID218 Cas12a is 90.4 % indel.

B5: 233 crRNA DYRK1A ; DYRK1A target (ssRNA ; dsDNA)
RNA: AAAAUUUCUACUCUUGUAGAUGAAGCACAUCAAGGACAUUCUAA
DNA 1: GAAGCACATCAAGGACATTCTAA
DNA 2: TTAGAATGTCCTTGATGTGCTTC
As for B5, the activity in the data set with ID233 Cas12a is 12.2 % indel.

B6: 236 crRNA DYRK1A ; DYRK1A target (ssRNA ; dsDNA)
RNA: UAAAUUUCUACUGUUGUAGAUGAAGCACAUCAAGGACAUUCUAA
DNA 1: GAAGCACATCAAGGACATTCTAA
DNA 2: TTAGAATGTCCTTGATGTGCTTC
In turn, B6 gave an activity in the data set with ID236 Cas12a of 5.2 % indel.
